In publication PMC6946597:
Read-outs that look alike come from different tables or passages of the source.

How the values were obtained:
[1] = target: human COA6 isoform 3 (human); assay: SEC
[2] = target: human COA6 isoform 3 (human); assay: SEC; remark: listed apart in the source

- stoichiometry N [1]: 2
- stoichiometry N [2]: 2
Substance: human COA6 isoform 3 (natural protein)
